The values that follow come from PMC5889392, “Cryptic glucocorticoid receptor-binding sites pervade genomic NF-κB response elements”.

Data set [1] has as its target T1, full-length GR (Homo sapiens, UniProt P04150 1-777). As to the kind of experiment: fluorescence polarization. Conditions: triamcinolone acetonide; Fig. 2d legend gives 35 nM; FP: 10 nM 6-FAM dsDNA, 100 mM NaCl, 20 mM Tris-HCl pH 7.4, 5% glycerol, temperature not stated; NMR: 20 mM phosphate pH 6.7, 100 mM NaCl, 1 mM TCEP, 10% D2O …. On the technique in general: Polarisation of emitted light reports the rotation of a fluorescent probe.

Data set [2] addresses T2, GR DBD (Homo sapiens, UniProt P04150 417-506). As to the kind of experiment: X-ray crystallography; 2.20 A; FP: 10 nM 6-FAM dsDNA, 100 mM NaCl, 20 mM Tris-HCl pH 7.4, 5% glycerol, temperature not stated; NMR: 20 mM phosphate pH 6.7, 100 mM NaCl, 1 mM TCEP, 10% D2O, 10 and 25 C (NOESY), 25 C (HSQC). As to conditions: protein: recombinant; tags: N-terminal 6xHis with TEV site.

In data set [3] the target is T1, full-length GR. The data set is described as follows: fluorescence polarization; triamcinolone acetonide; FP: 10 nM 6-FAM dsDNA, 100 mM NaCl, 20 mM Tris-HCl pH 7.4, 5% glycerol, temperature not stated; NMR: 20 mM phosphate pH 6.7, 100 mM NaCl, 1 mM TCEP, 10% D2O, 10 and 25 C (NOESY), 25 C (HSQC). As to conditions: protein: recombinant; tags: N-terminal 6xHis; chain copies: 2; label: 5'-FAM on strand 1; blunt.

Data set [4] deals with T2, GR DBD. As to the kind of experiment: X-ray crystallography; 2.40 A refinement; FP: 10 nM 6-FAM dsDNA, 100 mM NaCl, 20 mM Tris-HCl pH 7.4, 5% glycerol, temperature not stated; NMR: 20 mM phosphate pH 6.7, 100 mM NaCl, 1 mM TCEP, 10% D2O, 10 and 25 C (NOESY), 25 C (HSQC). As to conditions: protein: recombinant; tags: N-terminal 6xHis with TEV site.
Data set [5] has as its target T2, GR DBD. The data set is described as follows: X-ray crystallography; 1.85 A; FP: 10 nM 6-FAM dsDNA, 100 mM NaCl, 20 mM Tris-HCl pH 7.4, 5% glycerol, temperature not stated; NMR: 20 mM phosphate pH 6.7, 100 mM NaCl, 1 mM TCEP, 10% D2O, 10 and 25 C (NOESY), 25 C (HSQC). Conditions: protein: recombinant; tags: N-terminal 6xHis with TEV site.
The target in data set [6] is T2, GR DBD. The data set is described as follows: X-ray crystallography; 2.25 A; FP: 10 nM 6-FAM dsDNA, 100 mM NaCl, 20 mM Tris-HCl pH 7.4, 5% glycerol, temperature not stated; NMR: 20 mM phosphate pH 6.7, 100 mM NaCl, 1 mM TCEP, 10% D2O, 10 and 25 C (NOESY), 25 C (HSQC). Conditions: protein: recombinant; tags: N-terminal 6xHis with TEV site.
The target in data set [7] is T2, GR DBD. The data set is described as follows: fluorescence polarization; two-site binding curve; Kd in Supplementary Table 5; FP: 10 nM 6-FAM dsDNA, 100 mM NaCl, 20 mM Tris-HCl pH 7.4, 5% glycerol, temperature not stated; NMR: 20 mM phosphate pH 6.7, 100 mM NaCl, 1 mM TCEP, 10% D2O, 10 and 25 C (NOESY), 25 C (HSQC). Conditions: protein: recombinant, tags: N-terminal 6xHis with TEV site, blunt.

T2 sequence (P04150 417-506): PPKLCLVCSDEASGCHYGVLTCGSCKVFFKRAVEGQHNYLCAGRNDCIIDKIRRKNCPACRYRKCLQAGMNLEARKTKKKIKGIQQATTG
T1 sequence (P04150 whole entry): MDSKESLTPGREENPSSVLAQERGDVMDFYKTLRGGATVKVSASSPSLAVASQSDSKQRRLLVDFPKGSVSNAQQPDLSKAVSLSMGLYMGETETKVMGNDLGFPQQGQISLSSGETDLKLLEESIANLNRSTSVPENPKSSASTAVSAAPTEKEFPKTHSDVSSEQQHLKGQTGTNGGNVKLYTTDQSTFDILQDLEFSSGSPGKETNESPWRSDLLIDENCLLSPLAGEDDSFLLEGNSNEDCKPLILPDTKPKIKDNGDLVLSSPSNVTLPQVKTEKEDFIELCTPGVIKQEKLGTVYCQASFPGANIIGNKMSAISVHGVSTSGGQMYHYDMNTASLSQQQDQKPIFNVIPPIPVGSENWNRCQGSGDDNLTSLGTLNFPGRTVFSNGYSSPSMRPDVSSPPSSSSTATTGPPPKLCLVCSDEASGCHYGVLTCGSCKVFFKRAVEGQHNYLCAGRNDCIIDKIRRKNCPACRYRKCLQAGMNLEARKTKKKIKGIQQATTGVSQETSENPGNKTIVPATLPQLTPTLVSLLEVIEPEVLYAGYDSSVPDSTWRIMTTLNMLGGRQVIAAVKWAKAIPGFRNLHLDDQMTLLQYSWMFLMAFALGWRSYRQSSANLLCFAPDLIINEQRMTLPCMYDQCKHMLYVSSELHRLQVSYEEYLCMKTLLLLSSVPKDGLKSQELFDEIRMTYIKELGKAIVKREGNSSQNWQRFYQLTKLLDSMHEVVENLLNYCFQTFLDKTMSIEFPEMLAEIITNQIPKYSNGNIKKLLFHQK

By Kd is commonly meant the free concentration of one partner at which half of the binding sites on the other are occupied at equilibrium, for simple one-to-one binding. The molecule SGK1 (+)GRE gave a Kd in data set [1] of 34 nM.

B1: PLAU kBRE 16 bp crystal DNA (dsDNA)
DNA 1: ATCAGGAAATTTCCAG
DNA 2: CTGGAAATTTCCTGAT
As for B1, the binding result in data set [2] is “binds”.

B2: IL8 kBRE (dsDNA)
DNA 1: AATCGTGGAATTTCCTCTG
DNA 2: CAGAGGAAATTCCACGATT
With B2, in data set [3], the Kd amounted to 51 nM.

B3: ICAM1 kBRE 16 bp crystal DNA (dsDNA)
DNA 1: TTGGAAATTCCGGAGC
DNA 2: GCTCCGGAATTTCCAA
With B3, the binding result in data set [4] is “binds”.

B4: CCL2 kBRE 16 bp crystal DNA (dsDNA)
DNA 1: AGTGGGAATTTCCACT
DNA 2: AGTGGAAATTCCCACT
For the molecule B4, the binding result in data set [2] is on record as “binds”.

B5: IL8 kBRE 16 bp crystal DNA (dsDNA)
DNA 1: ATCGTGGAATTTCCTC
DNA 2: GAGGAAATTCCACGAT
B5: the binding result in data set [5] is given as “binds”.

B6: RELB kBRE 16 bp crystal DNA (dsDNA)
DNA 1: CCGGGGAATTCCGCCG
DNA 2: CGGCGGAATTCCCCGG
Regarding B6, the binding result in data set [6] is reported as “binds”.

B7: CCL2 kBRE (dsDNA)
DNA 1: GAGTGGGAATTTCCACTCA
DNA 2: TGAGTGGAAATTCCCACTC
B7: the binding result in data set [7] was “binds”.

B8: PLAU kBRE (dsDNA)
DNA 1: CCCTGGGAATTTCCTGATA
DNA 2: TATCAGGAAATTCCCAGGG
As to B8, the binding result in data set [7] (label: 5'-FAM on strand 1) is recorded as “binds”.
